Laboratory results from the DeepSol protein solubility set.

Assay: soluble on expression in E. coli; label from the status in PepcDB or PDB records

MGSDKIHHHHHHLRIEQKLWRENTGWSDLSPQVDGLMPQLLIVFGTRKYLQEEVRFEEIKGFYPGAHIFGCSTAGEICATNVFEDALAITALEFEHTRIESRQIHLSQVQNSFQAGEYLASSLTHDDLSHVLVLSDGLHVNGSELLQGLTSSLPPGIAITGGMAGDGVSFEETLVFLDAPPTPDTIAVLGFYGNHLRVGYGSMGGFDPFGPKRLITRSAANVLYEMDGRSALELYKKYLGEHAEGLPATGVFFPLSISGEEVAESLVRTILAVNEEEQSLTFGGDVPTGAYARMMKANLDRLIDGAVTAAESILSVVNNASPELAILISCFGRRSILKQRTEEEVEAVSDVFGSGCMLTGFYSYGEISPFKPGEKPEFHNQTMTITTFREV
soluble on expression in E. coli: not soluble

VRQKGIDIIFMLDISNSMLARDTAPDRLTHAKTELLQISRRLGDGRKALLLFAGTPVVQCPLTDDEEDFEILLDMAAPELITTQGTDYRRAFDAALKLTNSGGELSSNETVLVLASDGEDHGNDLGDIATAMKTRGVHLHVIGVGGVQPVPIPMQGGPKRDQQGKIVLTSFKPEPLASLIKTAKGKFYYSRPDAPVHDAVADDIAAEAAEA
soluble on expression in E. coli: not soluble

MSLCPLTPVGKYLLLPLWLGVRPFFRALFRIEVIGKENIPEGACIVASNHRSHLDPPVLNAVFPEPLVFLAKEELFKPPFGGILKHMRAIPLRRGSEDISTLEECVSLLKLGCKIGIFPEGTRANPGEFKRAKPGVGFLAINSGFPVLPVYIDGTDRAFPRGKKFPKPFVKVSVVIGKPLEFKGLEPSVKNYKRVANEIMEEIKKLAQSLHRKEGHHHHHH
soluble on expression in E. coli: soluble

MGSDKIHHHHHHMEYISLNRLGGAAGCPADAEAAARFRAALPEGCKGTFAVARRIAPVIIDFDLVMQEGAASVSLAKGLGLPVVPCIRRQVERARTDFPQRLQLELTNCCNNDCVMCPRHGGHFTRKPKHMDLDLVRRALDEIAQHYNYQLQLFHIGEPLLHPRIFEILDMLEDYPTLGRKWISSKGQELTPDIMRRVLTSKVDYFNYSLLAMTPATYARIVPNGDYATVRGNLERLADLKRDLGVQRPYLRAQMIEMDEALHEIDAFLDTWADRVDLLSVNRLETFSNRIDAKVTSAIKPRESIGPRACKRLERGDLYILSNGEVTVCDTDFNGELSLGNLNETTLAEMARGARYRQIIDSHERGDYSQIELCRHCEDWNL
soluble on expression in E. coli: not soluble

SVERIYQKKTQLEHILLRPDTYIGSVELVTQQMWVYDEDVGINYREVTFVPGLYKIFDEILVNAADNKQRDPKMSCIRVTIDPENNLISIWNNGKGIPVVEHKVEKMYVPALIFGQLLTSSNYDDDEKKVTGGRNGYGAKLCNIFSTKFTVETASREYKKMFKQTWMDNMGRAGEMELKPFNGEDYTCITFQPDLSKFKMQSLDKDIVALMVRRAYDIAGSTKDVKVFLNGNKLPVKGFRSYVDMYLKDKLDETGNSLKVIHEQVNHRWEVCLTMSEKGFQQISFVNSIATSKGGRHVDYVADQIVTKLVDVVKKKNKGGVAVKAHQVKNHMWIFVNALIENPTFDSQTKENMTLQPKSFGSTCQLSEKFIKAAIGCGIVESILNWVKFKAQVQLNKKCS
soluble on expression in E. coli: soluble

MSKDEGKRKKESVVDLTRFLDKEIRVKFQGGREASGVLRGFDQLLNMVLDDCREYLRDPQNPSVVGDETRQLGLIVARGTAITVVSPADGLEQIANPFATQEEE
soluble on expression in E. coli: not soluble

KDFCASIHRNDSLSLTHELEPFIDSMKNKTGVYVLEDGGGSLITRAWLSEYAEETIDIQYFIFSADNVGLIACDYLVRAADRGVKVRILIDDILVEAGVHEILTLDSHENIEIKIYNPGINLGKNIFNKIGKFTTDFRGANQRMHNKTFIVDHKVVITGGRNIADEYFDYDHEYNFRDRDVLLIGKTATDVQQSFESFWVDALSIPITGLVKEDDVTYTDTSRFERLHQYACNPDNFWPQVRKRISN
soluble on expression in E. coli: not soluble

MSLTKLIVICGATATGKSGLALNLAMRLGSVILSADSRQVYREFDIGTAKPTLAEQRAVPHYLIDICAPRETMTVADYQEQAQALINSLPVSPLLLVGGTGLYIRSIVQGMKIPRVAPNYELRSQLASLGQTTLYGILQQVDPIAAQKIHPNDPVRTLRAVEVFYITGIPISAQQGENPPDYPILQIGLDCEMERLTERIHKRTEQMITDGLVGEVEYLCQKYGAELPLLNTLGYQEIKQYLTGEISLEAAKELTVLHTRQFAKRQRTWFRASPQIEWFNADHPDLLDIVCQHIQQPEGHHHHHH
soluble on expression in E. coli: soluble

MSRHPLKIVIAGAGIGGLAAAACLKAAGFEVELYERARELRAVGSALSLMPNALTALERVGVRPDLTRAQAFDSLRFLTRRGRPIRAIDFGGLARQLGQPSLAIHRASLQQALLEQARDCRIELGVSATGYLRHADGEGVTVLCSDGREVHADVLIGADGFNSAIRATMTGPERPTDWHYVIWRATPAFRHPKVTPGYVAHYWGRGQRFGLADIGEGNVYWWGTRNMPAEQAKDWRGGKAGIQRLYAGWADEVQAVIEATPEADISSLPAQDRPFLERWGDGPVTLLGDAAHPMLTSLGQGAAIAIEDAAVLAHCLATIDDPQAALRAYENRRRDRARAMVETSRALSRIEQLEHPLRTVARDLYFRFAPERTFARQNELALTFPGVELEHHHHHH
soluble on expression in E. coli: not soluble

MSDEKKGGETEHINLKVLGQDNAVVQFKIKKHTPLRKLMNAYCDRAGLSMQVVRFRFDGQPINENDTPTSLEMEEGDTIEVYQQQTGG
soluble on expression in E. coli: soluble

MTTLTQVRPASVFVVSGGAKGITAQCVIELAQHQPCRFILLGRSEVIENEPDFARDCVEESVLKKAIMQHLLAQGEKPTPMSVQKVYHKIVSSREIKATLEAIAATGSQVEYIDVDVTNVAELRQKLADVGKITGIIHGAGNLADKLIEKKTDQDFEKVYTAKVQGLENLLSCVDANQLEHLVLFSSVAGFYGNMGQSDYAIANEILNKSAHLIKQNYPQCHVVAINWGGWDSGMVTPELKKAFAERGIDIIPVDVGTKMLVNELHPSHHDSTQVVIGSPIIPAPGNIDPQLRSYRIRRRMTVEANPFLLDHVIAGTPVLPATCGMSWMINACEECYPGYRYFRCQDFKILKGITFNDKVASEHILEIQEVAKHGSESIEFKTKVLSKTPEGKIHYHFSAHITIVRELPAAPVYESLDMTEDHTIGAIGKDFYQKGGLSLFHGISFQQITRVLNINSQKITVECCWAEIPLETQGQFPVKWHNPYATDLSTQPLWLWLSHVHQEVCLPGQITKSEQFRAIPRNKPFYVSCEIEHKTPSGVTADIILHDREGKIYFRIYQAKAIIAPMNLHLEHHHHHH
soluble on expression in E. coli: soluble

MGSDKIHHHHHHMSNRDKILSYRDLIKKKLIPLINADYVLLDVPNHPNIGDNLIWEGELRFLENIHYKCIYSANVHNWDENKIKDAKIILFHGGGNWGDLYRECQEHRLYIAEKFKDKRIIIFPQTVWYNNKSILPIDCKIFNNHADIHICLRDQMSMDILSNYVDAKKLYLLPDMAFFVDVEAMPMRKVRNDCILFMLRTDSEIDDITFKLESDFDVKDWPTFSNNKYILLLYSYFEYFKVVVSKRLQKCKFLNVFVSPIYGLNRKNNRERYIYKGINFFSNYEIIYTTRLHGLILGILMDKKVIIVDNKYNKCKNYYDTWLREFDNIELMS
soluble on expression in E. coli: not soluble

MGSDKIHHHHHHMNYTQGSLFENIENIPLAGRMRPRNLSDYIGQEHILEKGKALRNMLEKDSITSMILWGPPGVGKTTLAMIIASTTKCNFVEFSAATSGIKEIKDIMIKAEKDRLFGIRTLLFIDEIHRFNKSQQDTFLPHVEKGDIILIGATTENPSFEVNSALLSRCRVFVLKPLSNNDIVKLLKNALTDTRGFKNKNIQISEDLLTLIAVYSNGDARTALNVLEMAVLSSKLEHGVVTINKGILEDCMQNKALIYDKNGEEHYNLISALHKSMRNSDVDAAIYWLARMLEGGEDPLYIARRLIRFSSEDIGVADTNALNVTVNVYNSCHYIGMPECSVNLTEAVVYLSLAPKSNSIYMAYEKAKKDAKETLASGVPLHLRNAPTKLMSDLGYSKGYKYAHDFDNKVVDMQCLPDNLKDEKYYFPTTEGREKLFKERLHYIKKKKHTVNKSI
soluble on expression in E. coli: not soluble

MSRSQVTGKEFVLRCVFNDVSNMNDNDMRFGTVEEYFNVPWIFQIQRNNGNLGIYLRCTNLKDQEMWSIFSELELKLVSVYSDTRDQKCKIDMCFGHDSGKFYSSYGWSEFISWNELETSFMEAGSITVEARVLINKSIGFYTPKLMDFDEKMMEYSDIVVLVNGQRFYLLKKFLAFHSTFFESLFLGGFYEAKLAEVPLYDIDVDDFQKFLEVLYGFPVINVIVPINKLTLQQSEMLNACAQYAQTGSQKLTREANYVITEVRLF
soluble on expression in E. coli: not soluble

MTNTLVENIYASVTHNISKKEASKNEKTKAVLNQAVADLSVAASIVHQVHWYMRGPGFLYLHPKMDELLDSLNANLDEVSERLITIGGAPYSTLAEFSKHSKLDEAKGTYDKTVAQHLARLVEVYLYLSSLYQVGLDITDEEGDAGTNDLFTAAKTEAEKTIWMLQAERGQGPAL
soluble on expression in E. coli: soluble

MAAQVLSGHEAAEAVYEEIRARLRSLSFTPSLRVIRLGEDPASVAYVRLKDKRARALGYRSQVEVYPEDLPEEALLERIAALNADEEVDGILVQLPLPPHIRTQRVLEAIHPLKDVDGFHPLNVGRLWSGGKGLFPCTPLGVVRLLKHYGVDLRGKEVVVVGRSNIVGKPLAGLLLREDATVTLAHSKTQDLPEVTRRAQVLVVAVGRPHLVRKEWVREGAIVVDVGVNRVEGRLLGDVHPEVAEVAFALTPVPGGVGPMTVAMLMGNTLEAALLRRHGASG
soluble on expression in E. coli: soluble

HSQRVIRELDEHGFWSAMIPQWEHIRGRMPRESVHIHTIDVHSMVVTANCATQSIRVARPDLLFLAALFHDIGKGYGRRHEEVGAEFVVDMATTLRLNPSDTQIVETLVAQHTIIPHIVGRYNPTSTEAIDKLLDAVNYDLLTLDLLEALVEADAQGTAPGVWSAVLRYGTRELCAQARQR
soluble on expression in E. coli: not soluble

MWMKDPVARPLSPTRLQPALPPEAQSVPELEEVARVLAEIPRPLKRRGSMEQAPAVALPPTHKKQYQQIISRLFHRHGGPGPGGRSQSCPPSLRDLRPGQGPLLLPHQLPFHRPAPSQSSPPEQPQSMEMRSVLRKAGSPRKARRARLNPLVLLLDAALTGELEVVQQAVKEMNDPSQPNEEGITALHNAICGANYSIVDFLITAGANVNSPDSHGWTPLHCAASCNDTVICMALVQHGAAIFATTLSDGATAFEKCDPYREGYADCATYLADVEQSMGLMNSGAVYALWDYSAEFGDELSFREGESVTVLRRDGPEETDWWWAALHGQEGYVPRNYFGLFPRVKPQRSKV
soluble on expression in E. coli: soluble

MSLAQDVVVGVSWSNFQEERWKTDEAAIKAELESKGAKYISADAQSSSAKQLSDVESLIAQGATALIILAQDAQAIGPAVQAAADEGIPVVGYDRLIEDSRAFYLTFDNVEVGRMQARAVLEAAPSGRYVMIKGSPTDPNADFLRGGQQEVLQAAIDKGDITIVGEAYTDGWLPANAQRNMEQILTATDNGVDAVVASNDGTAGGVVAALTAQGMEGLPVSGQDGDHAALNRVAKGTQTVSVWKDARDLGRAAARIAVSLAEGTQMNAIGGADDWTSPGGTKMNAMFLEPLPITKDNLSVVVDAGWITQETLCQGVTNGPAPCNEGHHHHHH
soluble on expression in E. coli: soluble

MYGTEQIISGTIIAGPEILPIEGYICVKNGIITEIGEERTNSKNIIAPCFVNAHTHLGDSVCKDPVLGKTSGFRVQRDLDSLVKPPDGLKHRILRETPYKTLVGHIKRSLLDMIDTGTCAFADFREGGFLGVAALNKALEGLELRSLIFGRPAEPDLPLQVVLSEVRRILLRSDGLGMSGANDLDMNLLQEITACTRERKKLFAIHAGEKNRSDIEKALSLEPDLLIHLTHAGKKDLDEIAQAKIPVVVCPRSNFVTGAGMAPIAEMLEAGIRVAAGTDNVMLNSVNMFAEMEFMSKIFSIDDRQVFKICTLNGSFVMGPDSMCSIEKGNKANLMILNGDSNNLAGIQDPVGGITKRARPDDILAVLHS
soluble on expression in E. coli: not soluble
